This passage reports α-MSH EC50 for cAMP production (cAMP immunoassay dose-response, HEK cells stably expressing the receptor, three independent immunoassays) results from paper PMC3976318.

The target of assay [1] is HA-MC4R (wild-type melanocortin 4 receptor, 3x HA tagged) (human) (UniProt P32245).
For assay [2], the target named is HA-MC4R G34A (novel rare variant, 101G>C) (human) (UniProt P32245).

As for “α-melanocyte stimulating hormone (peptide)”, the α-MSH EC50 for cAMP production (cAMP immunoassay dose-response, HEK cells stably expressing the receptor, three independent immunoassays) stood at 41.1 nM in assay [1] and 43 nM in assay [2].
